Experimental data reported in US20050136049A1 (TRUBION PHARMACEUTICALS, published 2005).

Target: T1, CD137 (4-1BB) (human, UniProt Q07011 24-255)
T1 construct: whole, on cells; also called CD137 on stimulated human PBMC
Assay: flow immunocytofluorimetry, hybridoma supernatant on anti-CD3 stimulated human PBMC, FITC goat anti-mouse IgG
Text: Binding of 5B9 scFv IgG fusion protein or 5B9 murine monoclonal antibody was detected with FITC conjugated anti-human IgG or anti-mouse IgG, respectively.

T1 sequence (Q07011 24-255): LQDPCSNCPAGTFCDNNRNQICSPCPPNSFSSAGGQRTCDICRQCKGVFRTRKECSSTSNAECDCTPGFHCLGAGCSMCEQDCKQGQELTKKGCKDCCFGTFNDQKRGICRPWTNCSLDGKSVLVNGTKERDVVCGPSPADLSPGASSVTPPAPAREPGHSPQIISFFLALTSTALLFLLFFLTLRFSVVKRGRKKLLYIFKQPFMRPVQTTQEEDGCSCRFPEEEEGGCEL

binding result: binds
B1: 5B9 monoclonal antibody (antibody, V domains shown)
VH: QVQLKQSGPGLVQSSQSLSITCTVSGFSLTTYAVHWVRQSPGKGLEWLGVIWSGGITDYNAAFISRLSITKDDSKSQVFFKMNSLQPNDTAIYYCARNGGDNYPYYYAMDYWGQGTSVTVSS
VL: DIVMTQAAFSNPVTLGTSASISCRSSKSLLHSNGITYLYWYLQKPGQSPQLLIYQMSNLASGVPDRFSSSGSGTDFTLRISRVEAEDVGVYYCAQNLELPLTFGAGTKLELKR
notes: also called 5B9 murine monoclonal antibody
